Assay results taken from patent US20240009241A1 (published 2024).

B1: EGFRA33 TCR33-32L (TCR, V domains shown)
Valpha: not shown
Vbeta: GVIQSPRHEVTEMGQEVTLRCKPISGHNSLFWYRQTMMRGLELLIYFNNNVPIDDSGMPEDRFSAKMPNASFSTLKIQPSEPRDSAVYFCASRAGTGEVNEQFFGPGTRLTVL
B2: EGFRA33 TCRA33-32H (TCR, V domains shown)
Valpha: QKITQTQPGMFVQEKEAVTLDCTYDTSDQSYGLFWYKQPSSGEMIFLIYQGSYDEQNATEGRYSLNFQKARKSANLVISASQLGDSAMYFCAMREVFGNEKLTFGTGTRLTIIP
Vbeta: EEVAQTPKHLVRGEGQKAKLYCAPIKGHSYVFWYQQVLKNEFKFLISFQNENVFDETGMPKERFSAKCLPNSPCSLEIQATKLEDSAVYFCASSPPPSNTYNEQFFGPGTRLTVL
B3: EGFRA33 TCRA33-37-3 (TCR, V domains shown)
Valpha: AQKITQTQPGMFVQEKEAVTLDCTYDTSDQSYGLFWYKQPSSGEMIFLIYQGSYDEQNATEGRYSLNFQKARKSANLVISASQLGDSAMYFCAMREVFGNEKLTFGTGTRLTIIP
Vbeta: EEVAQTPKHLVRGEGQKAKLYCAPIKGHSYVFWYQQVLKNEFKFLISFQNENVFDETGMPKGRFSAKCLPNSPCSLEIQATKLEDSAVYFCASSHRSWKGGDTQPQHFGDGTRLSIL
B4: EGFRA33 TCRA33-37-4 (TCR, V domains shown)
Valpha: AQKITQTQPGMFVQEKEAVTLDCTYDTSDPSYGLFWYKQPSSGEMIFLIYQGSYDQQNATEGRYSLNFQKARKSANLVISASQLGDSAMYFCAMRSGHLSNFGNEKLTFGTGTRLTIIP
Vbeta: B3 Vbeta

Experiments:
[1] = molecular target: T1, EGFR L858R peptide on HLA-A*33:03 (human); assay: multimer staining
T1 peptide: HVKITDFGR

[2] = molecular target: T2, EGFR L858R peptide on HLA-A*33:01 (human); assay: killing
T2 peptide: HVKITDFGR

Binder | binding result [1] | binding result [2]
B1 | recognises | –
B2 | recognises | recognises
B3 | recognises | –
B4 | recognises | –
